Measured values published in patent publication US20120284877.
Where a chain is given by its changes, count along the chain named.

Tests used:
Test in all cases: cell_activity
Conditions in all cases: A. thaliana GUS recombination
[1] = target: T1, NLS-I-SceI C term mod #1-AlcR(1-60) (VC-SAH128-3, SAH126-1) (Saccharomyces cerevisiae / Aspergillus nidulans) (UniProt P03882)
T1 sequence: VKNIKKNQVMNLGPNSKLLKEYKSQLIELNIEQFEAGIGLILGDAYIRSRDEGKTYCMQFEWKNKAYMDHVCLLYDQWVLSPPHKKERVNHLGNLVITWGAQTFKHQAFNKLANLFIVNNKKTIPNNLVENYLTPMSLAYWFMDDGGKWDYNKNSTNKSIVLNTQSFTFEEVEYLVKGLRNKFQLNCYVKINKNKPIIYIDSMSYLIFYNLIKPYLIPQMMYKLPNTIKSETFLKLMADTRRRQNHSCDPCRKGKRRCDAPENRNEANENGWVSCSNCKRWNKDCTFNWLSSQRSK

[2] = target: T2, NLS-I-SceI C term mod #2-AlcR(1-60) (VC-SAH129-1, SAH127-1) (Saccharomyces cerevisiae / Aspergillus nidulans) (UniProt P03882)
T2 sequence: T1 sequence with T227A, K229A, S230N, E231Q, T232A

[3] = target: T3, NLS-I-SceI-AlcR(1-60) (VC-SAH48-8, VC-SAH91-1) (Saccharomyces cerevisiae / Aspergillus nidulans) (UniProt P03882)
T3 sequence: T1 sequence with K229S

AGCGGCCGCCTAGGGATCCGACAGGTTACGGGGCGGCGACCTCGCGGGTTTTCGCTATTTATGAAAATTTTCCGGTTTAAGGCGTTTCCGTTCTTCTTCGTCATAACTTAATGTTTTTATTTAAAATACCCTCTGAAAAGAAAGGAAACGACAGGTGCATTACCCTGTTATCCCTAGCGGATCCGCACGTTATCCCTAGCGGATCCGCACGTTATCCCTAT (double strand) [combined target site VC-SAH55-22 (#55)]
activity (% blue plants) [1]: 100
activity (% blue plants) [2]: 76
activity (% blue plants) [3]: 49
